T1: human neuropeptide Y2 receptor (human, UniProt P49146 1-381)
T1 construct: whole, on cells; also called hNPY2 receptor; hNPY2-R
T1 sequence (looked up): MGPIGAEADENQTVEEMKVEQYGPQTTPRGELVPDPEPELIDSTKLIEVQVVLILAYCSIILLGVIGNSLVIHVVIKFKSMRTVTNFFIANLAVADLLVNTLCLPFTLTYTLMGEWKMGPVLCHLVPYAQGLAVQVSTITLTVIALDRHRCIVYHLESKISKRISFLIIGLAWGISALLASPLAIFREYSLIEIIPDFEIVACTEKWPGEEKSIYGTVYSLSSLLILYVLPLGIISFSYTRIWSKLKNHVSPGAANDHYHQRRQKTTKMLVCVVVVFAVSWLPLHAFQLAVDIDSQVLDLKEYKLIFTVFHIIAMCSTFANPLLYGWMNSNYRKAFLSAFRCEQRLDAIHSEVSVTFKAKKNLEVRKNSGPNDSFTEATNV

B1: Compound 51 (peptide)
peptide: Isovaleryl-APEK([AEEA-AEEA-γGlu-C18 diacid])AEEEASPEELQRYYVSLRHYYNWLTRQRY-NH2
SMILES: CC(C)CC(=O)N[C@@H](C)C(=O)N1CCC[C@H]1C(=O)N[C@@H](CCC(=O)O)C(=O)N[C@@H](CCCCNC(=O)COCCOCCNC(=O)COCCOCCNC(=O)CC[C@H](NC(=O)CCCCCCCCCCCCCCCCC(=O)O)C(=O)O)C(=O)N[C@@H](C)C(=O)N[C@@H](CCC(=O)O)C(=O)N[C@@H](CCC(=O)O)C(=O)N[C@@H](CCC(=O)O)C(=O)N[C@@H](C)C(=O)N[C@@H](CO)C(=O)N1CCC[C@H]1C(=O)N[C@@H](CCC(=O)O)C(=O)N[C@@H](CCC(=O)O)C(=O)N[C@@H](CC(C)C)C(=O)N[C@@H](CCC(N)=O)C(=O)N[C@@H](CCCNC(=N)N)C(=O)N[C@@H](Cc1ccc(O)cc1)C(=O)N[C@@H](Cc1ccc(O)cc1)C(=O)N[C@H](C(=O)N[C@@H](CO)C(=O)N[C@@H](CC(C)C)C(=O)N[C@@H](CCCNC(=N)N)C(=O)N[C@@H](Cc1c[nH]cn1)C(=O)N[C@@H](Cc1ccc(O)cc1)C(=O)N[C@@H](Cc1ccc(O)cc1)C(=O)N[C@@H](CC(N)=O)C(=O)N[C@@H](Cc1c[nH]c2ccccc12)C(=O)N[C@@H](CC(C)C)C(=O)N[C@H](C(=O)N[C@@H](CCCNC(=N)N)C(=O)N[C@@H](CCC(N)=O)C(=O)N[C@@H](CCCNC(=N)N)C(=O)N[C@@H](Cc1ccc(O)cc1)C(N)=O)[C@@H](C)O)C(C)C
B2: Compound 60 (peptide)
peptide: Isovaleryl-APEK([AEEA-AEEA-γGlu-C18 diacid])PEEAASPEELEQYYVSLRHYYNWLTRQRY-NH2
SMILES: CC(C)CC(=O)N[C@@H](C)C(=O)N1CCC[C@H]1C(=O)N[C@@H](CCC(=O)O)C(=O)N[C@@H](CCCCNC(=O)COCCOCCNC(=O)COCCOCCNC(=O)CC[C@H](NC(=O)CCCCCCCCCCCCCCCCC(=O)O)C(=O)O)C(=O)N1CCC[C@H]1C(=O)N[C@@H](CCC(=O)O)C(=O)N[C@@H](CCC(=O)O)C(=O)N[C@@H](C)C(=O)N[C@@H](C)C(=O)N[C@@H](CO)C(=O)N1CCC[C@H]1C(=O)N[C@@H](CCC(=O)O)C(=O)N[C@@H](CCC(=O)O)C(=O)N[C@@H](CC(C)C)C(=O)N[C@@H](CCC(=O)O)C(=O)N[C@@H](CCC(N)=O)C(=O)N[C@@H](Cc1ccc(O)cc1)C(=O)N[C@@H](Cc1ccc(O)cc1)C(=O)N[C@H](C(=O)N[C@@H](CO)C(=O)N[C@@H](CC(C)C)C(=O)N[C@@H](CCCNC(=N)N)C(=O)N[C@@H](Cc1c[nH]cn1)C(=O)N[C@@H](Cc1ccc(O)cc1)C(=O)N[C@@H](Cc1ccc(O)cc1)C(=O)N[C@@H](CC(N)=O)C(=O)N[C@@H](Cc1c[nH]c2ccccc12)C(=O)N[C@@H](CC(C)C)C(=O)N[C@H](C(=O)N[C@@H](CCCNC(=N)N)C(=O)N[C@@H](CCC(N)=O)C(=O)N[C@@H](CCCNC(=N)N)C(=O)N[C@@H](Cc1ccc(O)cc1)C(N)=O)[C@@H](C)O)C(C)C
B3: Compound 61 (peptide)
peptide: Isovaleryl-APEK([AEEA-AEEA-γGlu-C18 diacid])PPEDASPEEIQRYYVSLRHYYNWLTRQRY-NH2
SMILES: CC[C@H](C)[C@H](NC(=O)[C@H](CCC(=O)O)NC(=O)[C@H](CCC(=O)O)NC(=O)[C@@H]1CCCN1C(=O)[C@H](CO)NC(=O)[C@H](C)NC(=O)[C@H](CC(=O)O)NC(=O)[C@H](CCC(=O)O)NC(=O)[C@@H]1CCCN1C(=O)[C@@H]1CCCN1C(=O)[C@H](CCCCNC(=O)COCCOCCNC(=O)COCCOCCNC(=O)CC[C@H](NC(=O)CCCCCCCCCCCCCCCCC(=O)O)C(=O)O)NC(=O)[C@H](CCC(=O)O)NC(=O)[C@@H]1CCCN1C(=O)[C@H](C)NC(=O)CC(C)C)C(=O)N[C@@H](CCC(N)=O)C(=O)N[C@@H](CCCNC(=N)N)C(=O)N[C@@H](Cc1ccc(O)cc1)C(=O)N[C@@H](Cc1ccc(O)cc1)C(=O)N[C@H](C(=O)N[C@@H](CO)C(=O)N[C@@H](CC(C)C)C(=O)N[C@@H](CCCNC(=N)N)C(=O)N[C@@H](Cc1c[nH]cn1)C(=O)N[C@@H](Cc1ccc(O)cc1)C(=O)N[C@@H](Cc1ccc(O)cc1)C(=O)N[C@@H](CC(N)=O)C(=O)N[C@@H](Cc1c[nH]c2ccccc12)C(=O)N[C@@H](CC(C)C)C(=O)N[C@H](C(=O)N[C@@H](CCCNC(=N)N)C(=O)N[C@@H](CCC(N)=O)C(=O)N[C@@H](CCCNC(=N)N)C(=O)N[C@@H](Cc1ccc(O)cc1)C(N)=O)[C@@H](C)O)C(C)C
B4: Compound 56 (peptide)
peptide: Isovaleryl-APEK([AEEA-AEEA-γGlu-C18 diacid])PEADAEPEELQRYYVSLRHYYNWLTRQRY-NH2
SMILES: CC(C)CC(=O)N[C@@H](C)C(=O)N1CCC[C@H]1C(=O)N[C@@H](CCC(=O)O)C(=O)N[C@@H](CCCCNC(=O)COCCOCCNC(=O)COCCOCCNC(=O)CC[C@H](NC(=O)CCCCCCCCCCCCCCCCC(=O)O)C(=O)O)C(=O)N1CCC[C@H]1C(=O)N[C@@H](CCC(=O)O)C(=O)N[C@@H](C)C(=O)N[C@@H](CC(=O)O)C(=O)N[C@@H](C)C(=O)N[C@@H](CCC(=O)O)C(=O)N1CCC[C@H]1C(=O)N[C@@H](CCC(=O)O)C(=O)N[C@@H](CCC(=O)O)C(=O)N[C@@H](CC(C)C)C(=O)N[C@@H](CCC(N)=O)C(=O)N[C@@H](CCCNC(=N)N)C(=O)N[C@@H](Cc1ccc(O)cc1)C(=O)N[C@@H](Cc1ccc(O)cc1)C(=O)N[C@H](C(=O)N[C@@H](CO)C(=O)N[C@@H](CC(C)C)C(=O)N[C@@H](CCCNC(=N)N)C(=O)N[C@@H](Cc1c[nH]cn1)C(=O)N[C@@H](Cc1ccc(O)cc1)C(=O)N[C@@H](Cc1ccc(O)cc1)C(=O)N[C@@H](CC(N)=O)C(=O)N[C@@H](Cc1c[nH]c2ccccc12)C(=O)N[C@@H](CC(C)C)C(=O)N[C@H](C(=O)N[C@@H](CCCNC(=N)N)C(=O)N[C@@H](CCC(N)=O)C(=O)N[C@@H](CCCNC(=N)N)C(=O)N[C@@H](Cc1ccc(O)cc1)C(N)=O)[C@@H](C)O)C(C)C
B5: Compound 52 (peptide)
peptide: Isovaleryl-APEK([AEEA-AEEA-γGlu-C18 diacid])AEEDASEEELQRYYVSLRHYYNWLTRQRY-NH2
SMILES: CC(C)CC(=O)N[C@@H](C)C(=O)N1CCC[C@H]1C(=O)N[C@@H](CCC(=O)O)C(=O)N[C@@H](CCCCNC(=O)COCCOCCNC(=O)COCCOCCNC(=O)CC[C@H](NC(=O)CCCCCCCCCCCCCCCCC(=O)O)C(=O)O)C(=O)N[C@@H](C)C(=O)N[C@@H](CCC(=O)O)C(=O)N[C@@H](CCC(=O)O)C(=O)N[C@@H](CC(=O)O)C(=O)N[C@@H](C)C(=O)N[C@@H](CO)C(=O)N[C@@H](CCC(=O)O)C(=O)N[C@@H](CCC(=O)O)C(=O)N[C@@H](CCC(=O)O)C(=O)N[C@@H](CC(C)C)C(=O)N[C@@H](CCC(N)=O)C(=O)N[C@@H](CCCNC(=N)N)C(=O)N[C@@H](Cc1ccc(O)cc1)C(=O)N[C@@H](Cc1ccc(O)cc1)C(=O)N[C@H](C(=O)N[C@@H](CO)C(=O)N[C@@H](CC(C)C)C(=O)N[C@@H](CCCNC(=N)N)C(=O)N[C@@H](Cc1c[nH]cn1)C(=O)N[C@@H](Cc1ccc(O)cc1)C(=O)N[C@@H](Cc1ccc(O)cc1)C(=O)N[C@@H](CC(N)=O)C(=O)N[C@@H](Cc1c[nH]c2ccccc12)C(=O)N[C@@H](CC(C)C)C(=O)N[C@H](C(=O)N[C@@H](CCCNC(=N)N)C(=O)N[C@@H](CCC(N)=O)C(=O)N[C@@H](CCCNC(=N)N)C(=O)N[C@@H](Cc1ccc(O)cc1)C(N)=O)[C@@H](C)O)C(C)C
B6: Compound 55 (peptide)
peptide: Isovaleryl-APEK([AEEA-AEEA-γGlu-C18 diacid])PEEDASPEEAQRYYVSLRHYYNWLTRQRY-NH2
SMILES: CC(C)CC(=O)N[C@@H](C)C(=O)N1CCC[C@H]1C(=O)N[C@@H](CCC(=O)O)C(=O)N[C@@H](CCCCNC(=O)COCCOCCNC(=O)COCCOCCNC(=O)CC[C@H](NC(=O)CCCCCCCCCCCCCCCCC(=O)O)C(=O)O)C(=O)N1CCC[C@H]1C(=O)N[C@@H](CCC(=O)O)C(=O)N[C@@H](CCC(=O)O)C(=O)N[C@@H](CC(=O)O)C(=O)N[C@@H](C)C(=O)N[C@@H](CO)C(=O)N1CCC[C@H]1C(=O)N[C@@H](CCC(=O)O)C(=O)N[C@@H](CCC(=O)O)C(=O)N[C@@H](C)C(=O)N[C@@H](CCC(N)=O)C(=O)N[C@@H](CCCNC(=N)N)C(=O)N[C@@H](Cc1ccc(O)cc1)C(=O)N[C@@H](Cc1ccc(O)cc1)C(=O)N[C@H](C(=O)N[C@@H](CO)C(=O)N[C@@H](CC(C)C)C(=O)N[C@@H](CCCNC(=N)N)C(=O)N[C@@H](Cc1c[nH]cn1)C(=O)N[C@@H](Cc1ccc(O)cc1)C(=O)N[C@@H](Cc1ccc(O)cc1)C(=O)N[C@@H](CC(N)=O)C(=O)N[C@@H](Cc1c[nH]c2ccccc12)C(=O)N[C@@H](CC(C)C)C(=O)N[C@H](C(=O)N[C@@H](CCCNC(=N)N)C(=O)N[C@@H](CCC(N)=O)C(=O)N[C@@H](CCCNC(=N)N)C(=O)N[C@@H](Cc1ccc(O)cc1)C(N)=O)[C@@H](C)O)C(C)C

*1 amine or outer side, *2 acyl side, *3 side chain or, on linkers, in order; H or OH if unused. Side-chain parts run from the residue outwards. The star is where a group is joined. C18 diacid = O=C(O)CCCCCCCCCCCCCCCCC(=O)*; γGlu = O=C(O)[C@H](CCC(=O)[*:2])N[*:1]; Isovaleryl = CC(C)CC(=O)*; AEEA = NCCOCCOCC(=O)O

This test concerns the target T1, human neuropeptide Y2 receptor. Briefly: radioligand competition (125I-PYY(1-36)), hNPY2R membranes. The gist of the method:
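Commercial human Y2 receptor membranes (0.5 μg protein/well) were incubated with peptide for 2 h at room temperature in 50 mM HEPES, 5 mM MgCl₂, 1 mM CaCl₂, pH 7.4, with 0.2% ovalbumin. Bound radioligand was separated on PEI-soaked GF/C filters and counted by scintillation, and IC₅₀ came from nonlinear sigmoidal regression.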
Take B1: the Ki worked out at 39.4 nM. With B2 the figure was 5.95 nM.

As for B3, affinity was put at a Ki of 0.4 nM.

B4 gave a Ki of 1.26 nM. Against the preceding molecule, the Ki is about 3.1-fold higher. With B5 the figure was 8.53 nM. Under B6 stands 3.35 nM.

Source of the values: US20210139548A1 (published 2021).
